The supplement of paper PMC12764529
± gives the half width of the 95% confidence interval.

Key:
[1] = folding stability dG unfold (combined trypsin and chymotrypsin); higher = more stable
Summary of the method: (§1)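 Digests were run with trypsin and chymotrypsin at 11 concentrations in threefold dilutions, plus a no-protease condition, on designed mini-proteins in a PA-tagged cDNA display construct. The mini-proteins were under 80 residues, had no cysteine, and were kept only when AlphaFold2 dimer inter-PAE was above 15. After sequencing, Bayesian fitting of the counts gave K50, from which unfolding free energy was derived against a sequence-predicted unfolded-state K50 and a shared folded-state K50, per protease or combined.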

[2] = folding stability dG unfold from trypsin proteolysis; higher = more stable
Summary of the method: as §1

[3] = folding stability dG unfold from chymotrypsin proteolysis; higher = more stable
Summary of the method: as §1

For “SAGGSAGGEDKYLVVEFTVPEGKAEEFIAEVKKKIPPNWKIERVEIVEKTEDGLYRVRVVLKPGSAGGSAGG [r6_340_TrMRF]”, the “folding stability dG unfold” value [1] was 4.87 ± 0.086 kcal/mol, the “folding stability dG unfold” value [2] was 4.5 ± 0.14 kcal/mol and the “folding stability dG unfold” value [3] was 4.88 ± 0.049 kcal/mol.

In the case of “SAGGSAGGEEAREAIEQELRARGINVTEIKVEEKKLTPDKTVVTFTVTARLPDSELTSTFTVVDSAGGSAGG [r6_533_JUSTAS]”, the “folding stability dG unfold” value [1] is reported as -0.173 ± 0.13 kcal/mol, the “folding stability dG unfold” value [2] is reported as 0.141 ± 0.19 kcal/mol and the “folding stability dG unfold” value [3] is reported as -0.92 ± 0.81 kcal/mol.

In the case of “SAGGSAGGEFTVTVTIEKDEEKGFIRIPISVSLPSSAFVPKTVEFLEFAKTLKENLPELEVDASSAGGSAGG [r6_102_TrMRF]”, the “folding stability dG unfold” value [1] is reported as 0.679 ± 0.038 kcal/mol, the “folding stability dG unfold” value [2] is reported as 0.609 ± 0.018 kcal/mol and the “folding stability dG unfold” value [3] is reported as 0.65 ± 0.075 kcal/mol.

In the case of “SAGGSAGGEIPPNIKKIETLPDDGWLMVKVDSPKDIREFFEDHGWEIKDVEEEGNTIHIPIKPKSAGGSAGG [r6_381_TrROS]”, the “folding stability dG unfold” value [1] is reported as 0.79 ± 0.25 kcal/mol, the “folding stability dG unfold” value [2] is reported as 0.648 ± 0.072 kcal/mol and the “folding stability dG unfold” value [3] is reported as 0.893 ± 0.24 kcal/mol.

With “SAGGSAGGEKGYKLVEITIPVTVYHGNKPYTIPIPIKVKSPEEVEKLKKFIENTSYDPTSGKFSSAGGSAGG [r6_197_TrMRF]” the “folding stability dG unfold” value [1] was 1.02 ± 0.13 kcal/mol, the “folding stability dG unfold” value [2] was 0.607 ± 0.1 kcal/mol and the “folding stability dG unfold” value [3] was 1.28 ± 0.24 kcal/mol.

With “SAGGSAGGEKPVVTRLELVETEEGLVRLRVELPDGELVEERRFPTLEEALAALPPGAKVEIVPLSAGGSAGG [r6_492_TrROS_Hall]” the “folding stability dG unfold” value [1] was 1.7 ± 0.032 kcal/mol, the “folding stability dG unfold” value [2] was 1.85 ± 0.032 kcal/mol and the “folding stability dG unfold” value [3] was 1.54 ± 0.01 kcal/mol.

In the case of “SAGGSAGGELEVEIVSVEFDEETKEIRIKIYVNGKLIEEKTIKIEPVKVYYKTKDGKKVSAEDLSAGGSAGG [r6_832_TrROS_Hall]”, the “folding stability dG unfold” value [1] is reported as 1 ± 0.19 kcal/mol, the “folding stability dG unfold” value [2] is reported as 1.1 ± 0.089 kcal/mol and the “folding stability dG unfold” value [3] is reported as 1.16 ± 0.26 kcal/mol.

With “SAGGSAGGEPELNVLETLEETVDPNTGLTYTTELVQLPDGTLVTVKTLYDKATGTWTVLETTPESAGGSAGG [r6_262_JUSTAS]” the “folding stability dG unfold” value [1] was 2.18 ± 0.13 kcal/mol, the “folding stability dG unfold” value [2] was 2.4 ± 0.18 kcal/mol and the “folding stability dG unfold” value [3] was 2.07 ± 0.079 kcal/mol.

With “SAGGSAGGEVEIEVTEEEEVPGLPDQEIVTKAKLPDGKTVTIKRTVDPKTGKVSVSFSVIEPPLSAGGSAGG [r6_337_JUSTAS]” the “folding stability dG unfold” value [1] was 0.363 ± 0.24 kcal/mol, the “folding stability dG unfold” value [2] was 0.44 ± 0.19 kcal/mol and the “folding stability dG unfold” value [3] was 0.355 ± 0.2 kcal/mol.

For “SAGGSAGGEVKIEVNKEKGYLLITVPKEEAEEIAKALKEKFGIKEVKIEVDEETDEVHILVKLESAGGSAGG [r6_661_TrROS_Hall]”, the “folding stability dG unfold” value [1] was 2.59 ± 0.27 kcal/mol, the “folding stability dG unfold” value [2] was 2.5 ± 0.14 kcal/mol and the “folding stability dG unfold” value [3] was 2.98 ± 0.12 kcal/mol.

In the case of “SAGGSAGGEVKTIEIEIEITDEDGRKYRIKMEAEVLPNGEIIIRMEIEDEETNETYEMTIVLKPSAGGSAGG [r6_726_TrROS_Hall]”, the “folding stability dG unfold” value [1] is reported as 4.35 ± 0.18 kcal/mol, the “folding stability dG unfold” value [2] is reported as 3.57 ± 0.19 kcal/mol and the “folding stability dG unfold” value [3] is reported as 4.55 ± 0.12 kcal/mol.

In the case of “SAGGSAGGEYELLTFTLEFEVPPEVEHVEFEAELEDFDEILEVRARPDPETGTVRVEIVARARPSAGGSAGG [r6_712_TrMRF]”, the “folding stability dG unfold” value [1] is reported as 2.28 ± 0.19 kcal/mol, the “folding stability dG unfold” value [2] is reported as 1.46 ± 0.044 kcal/mol and the “folding stability dG unfold” value [3] is reported as 2.62 ± 0.06 kcal/mol.

In the case of “SAGGSAGGFIEYDPKTGTITVTFPSSVSPEDVRAAIEAAGFPATPVAYSYDPSPPVRTVTFKVASAGGSAGG [r6_396_JUSTAS]”, the “folding stability dG unfold” value [1] is reported as 1.06 ± 0.092 kcal/mol, the “folding stability dG unfold” value [2] is reported as 1.14 ± 0.02 kcal/mol and the “folding stability dG unfold” value [3] is reported as 0.832 ± 0.11 kcal/mol.

With “SAGGSAGGGAAPRTRVIEVLFPVPPDVTVEEIAERLRALYPDAVLVAEAERLPDGYVRVVVTLRSAGGSAGG [r6_566_TrMRF]” the “folding stability dG unfold” value [1] was 3.19 ± 0.083 kcal/mol, the “folding stability dG unfold” value [2] was 2.49 ± 0.031 kcal/mol and the “folding stability dG unfold” value [3] was 3.54 ± 0.078 kcal/mol.

In the case of “SAGGSAGGGGMMKTITIPLEELKAKLAKETGKPLTIEEIKEALKKEGIKLLSVDKEKGTITISESAGGSAGG [r6_767_JUSTAS]”, the “folding stability dG unfold” value [1] is reported as 2.16 ± 0.13 kcal/mol, the “folding stability dG unfold” value [2] is reported as 2.4 ± 0.1 kcal/mol and the “folding stability dG unfold” value [3] is reported as 1.73 ± 0.09 kcal/mol.

With “SAGGSAGGGGSSMTIVDPKDVPFGQTFTVTTYAPGGKKISTTTLTVDVPPPVWRTDGNGKWFLESAGGSAGG [r6_487_JUSTAS]” the “folding stability dG unfold” value [1] was 0.4 ± 0.2 kcal/mol, the “folding stability dG unfold” value [2] was 0.163 ± 0.19 kcal/mol and the “folding stability dG unfold” value [3] was 0.28 ± 0.27 kcal/mol.

In the case of “SAGGSAGGGGVAEEVAALLKALGLKVKKIEVEVEEVPPDKKVARVKVTAELPTKKVTFELRVEVSAGGSAGG [r6_532_TrMRF]”, the “folding stability dG unfold” value [1] is reported as 2.76 ± 0.28 kcal/mol, the “folding stability dG unfold” value [2] is reported as 1.97 ± 0.092 kcal/mol and the “folding stability dG unfold” value [3] is reported as 3 ± 0.068 kcal/mol.

With “SAGGSAGGGHMPVTKTVQLPGRTVTLTYYPEKGTVKITFPEDGTEKTVPISPSETIEDVIKKLSSAGGSAGG [r6_166_JUSTAS]” the “folding stability dG unfold” value [1] was 2.6 ± 0.061 kcal/mol, the “folding stability dG unfold” value [2] was 2.32 ± 0.069 kcal/mol and the “folding stability dG unfold” value [3] was 2.74 ± 0.036 kcal/mol.
